Holding throughout (type): biochemical, Z. mays
The test system of data set [1] is 4-hydroxyphenylpyruvate dioxygenase (HPPD). Description: Insensitivity parameter (ON × OFF) and trait fitness (ON × OFF × kcat/KM or × kcat). Also on record: key to ON × OFF / Insensitivity, mesotrione, ON × OFF / Insensitivity, tembotrione, ON × OFF / Insensitivity, topramezone, ON × OFF / Insensitivity, sulcotrione, ON × OFF / Insensitivity, isoxaflutole (DKN), ON × OFF: insensitivity = ON rate ratio × OFF rate ratio (surrogate for KD). The text has this:
Because substrate and inhibitors bind in the same site, the high concentration of substrate present may competitively trap the inhibitor and prevent it from binding again. To be sure that improvement in ON rates is being taken into account, the ON and OFF rate ratios were multiplied, creating an “insensitivity parameter” that is a surrogate for KD. KD is expressed as kOFF/kON, but because the ON rate ratio is an inverse parameter (the higher the value of ON rate ratio, the lower the value of the represented phenomenon, kON), it is appropriate to multiply ON and OFF rate ratios rather then divide OFF rate ratio by ON rate ratio. Another parameter, which quantifies the combined catalytic and insensitivity properties of the enzyme is kcat/KM×ON rate ratio×OFF rate ratio, and is termed “trait fitness”. This parameter is intended to have a meaning similar to the commonly used expression kcat/KM×Ki.

Data set [2] shares this test system. The data set is described as follows: OFF rate ratio: release of inhibitor from pre-formed enzyme-inhibitor complex. The conditions noted are these: Table 7; tembotrione; combinatorial variants. On the procedure: A quantitative indicator of kOFF can be obtained by observing the time course of an HPPD reaction as inhibitor is released from a pre-formed enzyme-inhibitor complex. HPPD and inhibitor were incubated together at concentrations of 7.2 and 8 μM, respectively. Incubations with the same concentrations of enzyme but no inhibitor were done in parallel. After 1 hr at room temperature, 5 to 10 μl of the enzyme-inhibitor complex was dispensed into the wells of the assay plate. Reactions were started with the addition of 290 to 295 μl of 25 mM Hepes, pH 7, 2 mM ascorbate, 10 μM FeSO4, 100 μM HPP and 50 nM HGD. The reactions were monitored at 320 nm for 12 min. Reaction velocity accelerates as inhibitor is released from the enzyme until a steady state is reached, during which the reaction velocity is constant. The ratio of the steady state rate in mixtures containing herbicidal inhibitor to the initial velocity of mixtures lacking inhibitor is termed the “OFF rate ratio”.
Another parameter to record is the time span required for the reactions with inhibitor to reach the steady state. FIGS. 13C and 13D illustrate the contrasting time span in which maize wild-type HPPD (FIG. 13C) and an improved variant (SEQ ID NO:78) (FIG. 13D) dissociated from mesotrione, as indicated by the accelerating reaction rates. The plateau of absorbance is due to exhaustion of the substrate. With the improved variant, not only was the steady state attained in a shorter time span (80 sec for the variant versus 280 sec for wild type), the velocity attained was twice as high as with wild type, though the enzymes were present at the same concentration (240 nM). This is because a larger fraction of the variant enzyme is free of inhibitor compared to the wild-type enzyme, and the kcat for both is nearly the same, about 220 min^−1.

Data set [3] shares this test system. Description: Estimate of kcat from initial rate at saturating hydroxyphenylpyruvate without inhibitor (ON rate ratio assay). The text has this:
(§1) Higher KD (reduced affinity or increased insensitivity) can be attained with a numerically smaller ON rate, a larger OFF rate or both. To detect and quantify changes in kON and kOFF, observations of the time course of an HPPD reaction as inhibitor binds to and inactivates the enzyme (kON), or is released from a pre-formed enzyme-inhibitor complex (kOFF) were used, as shown in FIGS. 13A and 13B. In practice, a quantitative indicator of kON was obtained by monitoring the time courses of HPPD reactions containing 60 or 120 nM HPPD and 100 μM HPP in the presence and absence of 4 μM inhibitor (e.g., mesotrione or tembotrione). The ratio of the reaction rate with inhibitor to that without inhibitor during the 70 to 90 second interval of the reaction was termed the “ON rate ratio”. The smaller the actual kON, the more slowly the HPPD reaction decelerates and the higher the value is for the ON rate ratio. FIGS. 13A and 13B illustrate the contrasting reaction velocity in the 70-90 sec interval for maize wild-type HPPD (FIG. 13A) versus an improved variant (SEQ ID NO:78) (FIG. 13B).
Thirty nine variants were desensitized to tembotrione compared with the backbone enzyme, Round 7, variant 9070 (SEQ ID NO:2) and all were desensitized compared with maize wild type HPPD (SEQ ID NO:1). Because the assay for ON rate ratio includes an initial rate measurement at saturating hydroxyphenylpyruvate without inhibitor and with known enzyme concentration, an estimate of kcat was available. Taking into account kcat and insensitivity parameters, 30 variants were selected for measurement of substrate saturation kinetic parameters and re-evaluation of insensitivity to tembotrione. The kinetic and insensitivity parameters were determined as described in Example 1, and were multiplied to generate the “trait fitness” parameter. The complete list of variants, i.e., of selected single substitutions in SEQ ID NO:2, analyzed with multiple inhibitors and the results obtained are shown in Table 6. The same set of 30 variants were evaluated for insensitivity to mesotrione, sulcotrione, isoxaflutole (its active diketonitrile form, abbreviated DKN in Table 6) and topramezone.

Data set [4] shares this test system. Description: ON rate ratio: HPPD reaction rate with vs without inhibitor in the 70 to 90 second interval. As to conditions: Table 7; tembotrione; combinatorial variants.
Description: as §1

Setting [5] is: Table 7, tembotrione, combinatorial variants.
Where [6] appears, read: Table 7, combinatorial variants.

B1: P056028-C-05 (protein)
chain: MGPTPTATAAGAAVAAASAAEQAAFRLVGHRNFVRFNPRSDRFQTLAFHHVELWCADAASAAGRFSFALGVPLAARSDLSTGNSAHASLLLRSGSLSLLFTAPYAHGADAATAALPSFSAAAARRFAADHGLAVRAVALRVADAEDAFRASVAAGARPAFGPVDLGRGFRLAEVELYGDVVLRYVSYPDGAAGEPFLPGFEGVASPGAADYGLSRFDHIVGNVPELAPAAAYMAGFTGFHEFAEFTTEDVGTTESGLNSMALANNSENVLLPLNEPVHGTKRRSQIQTFLDHHGGPGVQHIALASDDVLRTLREMRARSAMGGFEFLPPPLSDYYDGVRKCAGDVLTEAQINECQRLGVMVDRDDEGVLLQIFTKPVGDRPTFFLEIIQRIGCMEKDEKGQEYQKGGCGGFGKGNFGQLFKSIEDYEKSLEAKQAAAAATAQGS
modifications: Zea mays variant form created by artificial means.
As a reminder, the kcat is the maximal rate divided by the concentration of active sites. For the molecule B1, the “ON × OFF” value in data set [1] (Megatable 3, shuffled variants) is recorded as 0.268; in data set [1] (setting [5]), 0.268. The “ON × OFF × kcat” value in data set [1] (Megatable 3, shuffled variants) is recorded as 5.80; in data set [1] (setting [5]), 5.80. Also, the OFF rate ratio in data set [2] is recorded as 0.375. Also, the catalytic constant (kcat) was 0.362 s⁻¹ in data set [3] (Megatable 3, shuffled variants) and 0.362 s⁻¹ in data set [3] (setting [6]). Besides, the ON rate ratio in data set [4] was found to be 0.715.

B2: P056028-A-10 (protein)
chain: MGPTPTATAAGAAVAAASAAEQAAFRLVGHRNFVRFNPRSDRFQTLAFHHVELWCADAASAAGRFSFALGVPLAARSDLSTGNSAHASLLLRSGSLSLLFTAPYAHGADAATAALPSFSAAAARRFAADHGLAVRAVALRVADAEDAFRASVAAGARPAFGPVDLGRGFRLAEVELYGDVVLRYVSYPDGAAGEPFLPGFEGVASQGAADLGLSRFDHIVGNVPELAPAAAYMAGFTGFHEFAEFTTEDVGTTESGLNSMALANNSENVLLPLNEPVHGTKRRSQIQTFLDHHGGPGVQHIALASDDVLRTLREMRARSAMGGFEFLPPPLSDYYDGVRRCAGDVLTEAQINECQKLGVMVDRDDEGVLLQIFTKPVGDRPTFFLEIIQRIGCMEKDEKGQEYQKGGCGGFGKGNFGQLFKSIEDYEKSLEAKQAAAAATAQGS
modifications: Zea mays variant form created by artificial means.
Turning to B2, the “ON × OFF” value in data set [1] (Megatable 3, shuffled variants) came out at 0.260; in data set [1] (setting [5]), 0.260. In addition, the “ON × OFF × kcat” value in data set [1] (Megatable 3, shuffled variants) turned out to be 4.35; in data set [1] (setting [5]), 4.35. Further, the OFF rate ratio in data set [2] is 0.367. Also, the kcat in data set [3] (Megatable 3, shuffled variants) was 0.28 s⁻¹; in data set [3] (setting [6]) it was 0.28 s⁻¹. Further, the ON rate ratio in data set [4] is 0.707.

B3: P056028-A-08 (protein)
chain: MGPTPTATAAGAAVAAASAAEQAAFRLVGHRNFVRFNPRSDRFQTLAFHHVELWCADAASAAGRFSFALGVPLAARSDLSTGNSAHASLLLRSGSLSLLFTAPYAHGADAATAALPSFSAAAARRFAADHGLAVRAVALRVADAEDAFRASVAAGARPAFGPVDLGRGFRLAEVELYGDVVMRYVSYPDGAAGEPFLPGFEGVASQGAADYGLSRFDHIVGNVPELAPAAAYMAGFTGFHEFAEFTTEDVGTTESGLNSMALANNSENVLLPLNEPVRGTKRRSQIQTFLDHHGGPGVQHIALASDDVLRTLREMRARSAMGGFEFLPPPLSDYYDGVRKCAGDVLTEAQINECQELGVMVDRDDEGVLLQIFTKPVGDRPTFFLEIIQRIGCMEKDEKGQEYQKGGCGGFGKGNFGQLFKSIEDYEKSLEAKQAAATATAQGS
modifications: Zea mays variant form created by artificial means.
On to B3, for which the “ON × OFF” value in data set [1] (Megatable 3, shuffled variants) was found to be 0.217; in data set [1] (setting [5]) it was 0.217. Besides, the “ON × OFF × kcat” value in data set [1] (Megatable 3, shuffled variants) was 5.68; in data set [1] (setting [5]), 5.68. Also, in data set [2], the OFF rate ratio is 0.324. The kcat was 0.437 s⁻¹ in data set [3] (Megatable 3, shuffled variants) and 0.437 s⁻¹ in data set [3] (setting [6]). The ON rate ratio in data set [4] turned out to be 0.669.

Values taken from patent US11015206B2, “Compositions and methods comprising sequences having hydroxyphenylpyruvate dioxygenase (HPPD) activity” (PIONEER HI-BRED INTERNATIONAL, INC., priority 2014, dated 2021).
